One block for each molecule: values may come before it.
Experiments:
L6 cells [1] = assay: Cell toxicity in L6 cells; type: cell-based, rat; conditions: 10μM peptide in the presence of liposomes, data not shown
L6 cells [2] = assay: FACS analysis of peptide uptake in L6 cells; type: cell-based, rat; conditions: FITC-conjugated peptide, increasing concentrations, in the presence of liposomes, harvested 48h later, FACS FL-1, four experiments
Method: Figure 3 Design and in vitro effects of Prep1(54-72) peptide on Prep1/p160 association (A) Binding curves of Prep1(59-72) and Prep1(54-72) peptides to p160_20-160 by ELISA-like assays. Biotinylated peptides at several concentrations were added in triplicate to a 96-well plate coated with p160_20-160 (0.1μM). Experiments were performed at least twice and the average results fitted using GraphPad Prism. […] (B) Competition binding experiments. His6-tagged-p160_20-160 at 0.25μM was incubated with Prep1(59-72) and Prep1(54-72) at concentrations ranging between 0.001÷10μM and added to a 96-well plate coated with Prep1_45-155 (0.10μM). Results are the average of three independent experiments. (C) L6 cells were incubated with increasing concentrations of the fluorescein-conjugated peptide (FITC-Prep1(54-72)) and peptide uptake was detected by FACS analysis of fluorescein-labeled cells. […] Protein lysates were immunoprecipitated with Prep1 antibodies and analyzed by Western blot using antibodies for p160 or for Prep1. […] The blots were detected by ECL and autoradiography. […]
L6 cells were incubated with negative control (NC) and Prep1(54-72) peptides conjugated with fluorescein isothiocianate (FITC) at different concentrations and harvested 48h later. […] The samples were acquired by a BD LSRFortessa (BD Bioscience, San Jose, CA) and analyzed using BD FACS Diva Software.

His6-tagged p160(20-160) = target: T1, His6-tagged p160(20-160) (UniProt Q7TPV4 20-160); assay: ELISA; competition ELISA: plate coated with Prep1(45-155) (0.1 uM); His6-tagged p160(20-160) at 0.25 uM pre-incubated with peptides at 0.001-10 uM; detection with anti-His HRP-conjugated antibody; conditions: both partners purified
T1 construct: also called His6-p160(20-160); p160(20-160) domain
T1 sequence (looked up): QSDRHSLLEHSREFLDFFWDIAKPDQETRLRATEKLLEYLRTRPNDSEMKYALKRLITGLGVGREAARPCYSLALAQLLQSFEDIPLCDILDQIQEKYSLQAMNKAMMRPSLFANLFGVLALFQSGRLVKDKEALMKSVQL

[3] = target: Prep1 (Pbx regulating protein 1), endogenous in L6 cells (rat (endogenous in L6))

Molecule: FITC-Prep1(54-72): fluorescein-conjugated Prep1(54-72) peptide
cell toxicity (L6 cells [1]): without inducing any apparent cell toxicity | peptide uptake into cells (L6 cells [2]): dose-dependent manner

IC50 (His6-tagged p160(20-160)): 200 nM
B1: Prep1(54-72) peptide (peptide)
peptide: Ac-KQAIYRHPLFPLLALLFEK-NH2
notes: Prep1 (Pbx regulating protein 1), stretch of the HR1 domain, named residues 54-72; Brought into L6 cells in the presence of liposomes for the cell experiments; source: synthetic peptide (Fmoc solid phase, RP-HPLC purified)

decrease in p160 protein level in C2cer-treated L6 cells incubated with Prep1(54-72), Western blot [3]: 25%
B2: p160 myb binding protein, endogenous in L6 cells (natural protein)
chain: MAEMKSPTKAEPASPAEAPQGDRRSLLEHSREFLDFFWDIAKPDQETRLRATEKLLEYLRTRPSDSEMKYALKRLITGLGVGREAARPCYSLALAQLLQSFEDIQLCDILGQIQEKYNLQAMNKAMMRPTLFANLFGVLALFQSGRLVKDKEALMKCVRLLKILSHHYNHLQGQPVKALVDILSEVPESMFQEILPKVLKGDMKVILSSPKYLELFLLARQRVPAELESLVGSVDLFSEDNIPSLVNILKVAANSVKKEQKLPDVALNLLRLALQENKFERFWKEVLEEGLLKKPSYTSSYMCFRLLGASLPLLSDEQLQLVMRGDLIRHFGEHMVVSKSQNPLRFIPEISAYVGTFLEGCQDDPKRQFTVMVAFTAITNQGLPVMPTFWRVTRFLNTEALQNYVTWLRDMFLQPDLDSLVDFSTANQKRVQVASLNVPERTVFRLRKWIIHRLVSLVDHLHLEKDEAVVEQIARFCLFHAFFKTKKATPQIPETKQHFSFPLEDGNRGVIVSAFFSLLQTLSVKFRQTPDLAENGKPWTYRLVQLADMLLKHNRNVANVTPLTAQQRQAWDQMMSTLKELEAQSSETRAIAFQHLLLLVGLHLFKSPAESCDVLGDIQTCIKKSMEQNLRRSRSRAKASQEPVWVEVMVEILLSLLAQPSNLMRQVVRSVFGHVCSHLTPRGLQLILAVLNPETNEDEEDNVVVTDTDEKQLKHGEDADSDSEDSKNSESDVDSEDGEESEEEDRDKDVDPGFRQQLMEVLQAGNALGGEEEEEEELGDEAMMALDQNLASLFAEQKMRIQARHEEKNKLQKEKQLRRDFQIRALDLIEVLVTKQPEHPLILELLEPLLNIIQRSMRSRGSTKQEQDLLHKTARIFMHHLCRARHYCHEVEPGAEALHAQVERLVQQAGNQADASVALYYFNASLYLLRVLKGNTTKRYQDGQKLEGADIKSEPKDSEVQTTSCLDLDFVTRVYSASLESLLTKRNSPLTIPMFLDLFSRYPVICKNLLPIVVQHVAGSSRPRHQAQACLLLQKALSARELRVCFEDPEWEQLISQVLGKTTQTLQTLGEAQSKGEHQRELSILELLNTVFRIVNHEKLSVDLTAFLGMLQGKQQKLQQNLQQGNHSSGSSRLYDLYWQAMNLLGVQRPKSEKKNVKDIPSDSQSPISTKRKKKGFLPETKKRKKLKSEGTTSEKKAASQQDAVTEGAMPAATGKDQPPSTGKKRRKRVKANTPSQVNGVTVAKSPAPNNPTLSPSTPPAKTPKVQKKKEKLSQVNGSTPVSPVEPESKKHQKALSTKEVKRRSSQSALPKKRARLSLVSRSPSLLQSGIRKRRVARRRVQTP

From publication PMC5641094, “A peptide antagonist of Prep1-p160 interaction improves ceramide-induced insulin resistance in skeletal muscle cells” (Oncotarget, 2017)
